Test system: Bacillus subtilis
Experiment: cleaved RNA product abundance (RNA/gDNA barcode ratio) relative to median wild-type variant (ratio to wild type); higher = more accumulation of the downstream cleavage product
Settings: cleavage site: cggR-gapA (positions -7 to +36 mutated)
Procedure, shortened: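 Cleaved product abundance was measured with barcoded reporter mRNAs (truncated aprE or tetM) carrying mutagenized RNase Y cleavage-site windows in the B. subtilis chromosome. Cultures in LB at 37°C grew from OD600 0.0003 to 0.3. Gel-selected cleaved RNA was reverse transcribed and barcode-sequenced with genomic DNA barcodes, and the RNA:gDNA barcode ratio per construct was scaled to the median construct bearing the unmutated site.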

[1] = experiment (reporter, strain, medium): exp 4a: truncated aprE reporter, strain BJT201 with 2% xylose (RNase J1 expressed)
[2] = experiment (reporter, strain, medium): exp 2b: truncated aprE reporter, strain BJT200
[3] = experiment (reporter, strain, medium): exp 6: tetM reporter, strain 168

Sequence: ACAGACGAAGGAGCCGCAAAGAAGTTATTAAGGGATGAATAATCCCTCAACATACATATCTCTCACTTATTTAAA
- cleaved RNA product abundance [1]: 0.273

Sequence: ACAGACGAAGGAGCCGCAAAGAAGTTATTAAGGGATGAATAATCCCTCAAGATAAATATCTCTCACTTATTTAAA
- cleaved RNA product abundance [2]: 0.217
- cleaved RNA product abundance [1]: 0.256
- cleaved RNA product abundance [3]: 0.289

Sequence: ACAGACGAAGGAGCCGCAAAGAAGTTATTAAGGGATGAATAATCCCTCAAGATAAATATTTCTCACTTATTTAAA
- cleaved RNA product abundance [1]: 0.27

Sequence: ACAGACGAAGGAGCCGCAAAGAAGTTATTAAGGGATGAATAATCCCTCAATAAAAATATCTCTCACTTATTTAAA
- cleaved RNA product abundance [2]: 0.172
- cleaved RNA product abundance [1]: 0.147
- cleaved RNA product abundance [3]: 0.28

Sequence: ACAGACGAAGGAGCCGCAAAGAAGTTATTAAGGGATGAATAATCCCTCAATAAAAATGTCTCTCACTTATTTAAA
- cleaved RNA product abundance [1]: 0.0307

Sequence: ACAGACGAAGGAGCCGCAAAGAAGTTATTAAGGGATGAATAATCCCTCAATACAAATACCTCTCACTTATTTAAA
- cleaved RNA product abundance [1]: 0.0316

Sequence: ACAGACGAAGGAGCCGCAAAGAAGTTATTAAGGGATGAATAATCCCTCAATACAAATATCTCTCACTTATTTAAA
- cleaved RNA product abundance [2]: 0.117
- cleaved RNA product abundance [1]: 0.0683
- cleaved RNA product abundance [3]: 0.23

Sequence: ACAGACGAAGGAGCCGCAAAGAAGTTATTAAGGGATGAATAATCCCTCAATAGAAATACCTCTCACTTATTTAAA
- cleaved RNA product abundance [1]: 0.0433

Sequence: ACAGACGAAGGAGCCGCAAAGAAGTTATTAAGGGATGAATAATCCCTCAATAGAAATATCTCTCACTTATTTAAA
- cleaved RNA product abundance [2]: 0.164
- cleaved RNA product abundance [1]: 0.111
- cleaved RNA product abundance [3]: 0.165

Sequence: ACAGACGAAGGAGCCGCAAAGAAGTTATTAAGGGATGAATAATCCCTCAATATAAAAATCACTCACTTATTTAAA
- cleaved RNA product abundance [1]: 1.16

Sequence: ACAGACGAAGGAGCCGCAAAGAAGTTATTAAGGGATGAATAATCCCTCAATATAAAAATCTCTCACTTATTTAAA
- cleaved RNA product abundance [2]: 0.906
- cleaved RNA product abundance [1]: 0.794
- cleaved RNA product abundance [3]: 0.602

Sequence: ACAGACGAAGGAGCCGCAAAGAAGTTATTAAGGGATGAATAATCCCTCAATATAAAAATGTCTCACTTATTTAAA
- cleaved RNA product abundance [1]: 1.17

Sequence: ACAGACGAAGGAGCCGCAAAGAAGTTATTAAGGGATGAATAATCCCTCAATATAAAAATTTCTCACTTATTTAAA
- cleaved RNA product abundance [1]: 0.688

Sequence: ACAGACGAAGGAGCCGCAAAGAAGTTATTAAGGGATGAATAATCCCTCAATATAAAATATCTCTCACTTATTTAA
- cleaved RNA product abundance [2]: 0.806

Sequence: ACAGACGAAGGAGCCGCAAAGAAGTTATTAAGGGATGAATAATCCCTCAATATAAACATCTCTCACTTATTTAAA
- cleaved RNA product abundance [2]: 0.652
- cleaved RNA product abundance [1]: 0.702
- cleaved RNA product abundance [3]: 0.847

Sequence: ACAGACGAAGGAGCCGCAAAGAAGTTATTAAGGGATGAATAATCCCTCAATATAAACATTTCTCACTTATTTAAA
- cleaved RNA product abundance [2]: 0.752

Sequence: ACAGACGAAGGAGCCGCAAAGAAGTTATTAAGGGATGAATAATCCCTCAATATAAACCTCTCTCACTTATTTAAA
- cleaved RNA product abundance [1]: 0.171

Sequence: ACAGACGAAGGAGCCGCAAAGAAGTTATTAAGGGATGAATAATCCCTCAATATAAAGATCTCTCACTTATTTAAA
- cleaved RNA product abundance [2]: 0.666
- cleaved RNA product abundance [1]: 0.627

Sequence: ACAGACGAAGGAGCCGCAAAGAAGTTATTAAGGGATGAATAATCCCTCAATATAAATAACTCTCACTTATTTAAA
- cleaved RNA product abundance [2]: 0.903
- cleaved RNA product abundance [1]: 0.849
- cleaved RNA product abundance [3]: 0.706

Sequence: ACAGACGAAGGAGCCGCAAAGAAGTTATTAAGGGATGAATAATCCCTCAATATAAATACATCTCACTTATTTAAA
- cleaved RNA product abundance [1]: 0.712

Sequence: ACAGACGAAGGAGCCGCAAAGAAGTTATTAAGGGATGAATAATCCCTCAATATAAATACCTCTCACTTATTTAAA
- cleaved RNA product abundance [2]: 0.69
- cleaved RNA product abundance [1]: 0.56
- cleaved RNA product abundance [3]: 0.593

Sequence: ACAGACGAAGGAGCCGCAAAGAAGTTATTAAGGGATGAATAATCCCTCAATATAAATAGCTCTCACTTATTTAAA
- cleaved RNA product abundance [2]: 0.637
- cleaved RNA product abundance [1]: 0.616
- cleaved RNA product abundance [3]: 0.688

Sequence: ACAGACGAAGGAGCCGCAAAGAAGTTATTAAGGGATGAATAATCCCTCAATATAAATATATCTCACTTATTTAAA
- cleaved RNA product abundance [2]: 0.976
- cleaved RNA product abundance [1]: 1.02

Sequence: ACAGACGAAGGAGCCGCAAAGAAGTTATTAAGGGATGAATAATCCCTCAATATAAATATCACTCACTTATTTAAA
- cleaved RNA product abundance [1]: 0.917

Sequence: ACAGACGAAGGAGCCGCAAAGAAGTTATTAAGGGATGAATAATCCCTCAATATAAATATCTCTACTTATTTAAAG
- cleaved RNA product abundance [2]: 1.09

Sequence: ACAGACGAAGGAGCCGCAAAGAAGTTATTAAGGGATGAATAATCCCTCAATATAAATATCTCTCACTATTTAAAG
- cleaved RNA product abundance [2]: 1.28
- cleaved RNA product abundance [1]: 1.23

Sequence: ACAGACGAAGGAGCCGCAAAGAAGTTATTAAGGGATGAATAATCCCTCAATATAAATATCTCTCACTTATTAAAG
- cleaved RNA product abundance [2]: 0.94
- cleaved RNA product abundance [1]: 0.971

Sequence: ACAGACGAAGGAGCCGCAAAGAAGTTATTAAGGGATGAATAATCCCTCAATATAAATATCTCTCACTTATTTAAA
- cleaved RNA product abundance [3]: 1.06

Sequence: ACAGACGAAGGAGCCGCAAAGAAGTTATTAAGGGATGAATAATCCCTCAATATAAATATCTCTCACTTATTTAAG
- cleaved RNA product abundance [2]: 0.868
- cleaved RNA product abundance [1]: 0.646

Sequence: ACAGACGAAGGAGCCGCAAAGAAGTTATTAAGGGATGAATAATCCCTCAATATAAATATCTCTCACTTTTTAAAG
- cleaved RNA product abundance [1]: 0.879

Sequence: ACAGACGAAGGAGCCGCAAAGAAGTTATTAAGGGATGAATAATCCCTCAATATAAATATCTCTCATTATTTAAAG
- cleaved RNA product abundance [2]: 1.06
- cleaved RNA product abundance [1]: 1.05

Sequence: ACAGACGAAGGAGCCGCAAAGAAGTTATTAAGGGATGAATAATCCCTCAATATAAATATCTCTCCTTATTTAAAG
- cleaved RNA product abundance [2]: 0.315

Sequence: ACAGACGAAGGAGCCGCAAAGAAGTTATTAAGGGATGAATAATCCCTCAATATAAATATCTCTCGCTTATTTAAA
- cleaved RNA product abundance [1]: 0.778

Sequence: ACAGACGAAGGAGCCGCAAAGAAGTTATTAAGGGATGAATAATCCCTCAATATAAATATGACTCACTTATTTAAA
- cleaved RNA product abundance [1]: 1

Sequence: ACAGACGAAGGAGCCGCAAAGAAGTTATTAAGGGATGAATAATCCCTCAATATAAATATGTCTCACTTATTTAAA
- cleaved RNA product abundance [1]: 0.713

Sequence: ACAGACGAAGGAGCCGCAAAGAAGTTATTAAGGGATGAATAATCCCTCAATATAAATATTTCTCACTTATTTAAA
- cleaved RNA product abundance [2]: 1
- cleaved RNA product abundance [1]: 0.864

Sequence: ACAGACGAAGGAGCCGCAAAGAAGTTATTAAGGGATGAATAATCCCTCAATATAAATCTCTCTCACTTATTTAAA
- cleaved RNA product abundance [2]: 0.652
- cleaved RNA product abundance [1]: 0.679
- cleaved RNA product abundance [3]: 0.701

Sequence: ACAGACGAAGGAGCCGCAAAGAAGTTATTAAGGGATGAATAATCCCTCAATATAAATGACTCTCACTTATTTAAA
- cleaved RNA product abundance [1]: 1.3

Sequence: ACAGACGAAGGAGCCGCAAAGAAGTTATTAAGGGATGAATAATCCCTCAATATAAATGTCTCTCACTTATTTAAA
- cleaved RNA product abundance [2]: 0.498
- cleaved RNA product abundance [1]: 0.636
- cleaved RNA product abundance [3]: 0.546

Sequence: ACAGACGAAGGAGCCGCAAAGAAGTTATTAAGGGATGAATAATCCCTCAATATAAATGTTTCTCACTTATTTAAA
- cleaved RNA product abundance [1]: 0.369

Sequence: ACAGACGAAGGAGCCGCAAAGAAGTTATTAAGGGATGAATAATCCCTCAATATAAATTACTCTCACTTATTTAAA
- cleaved RNA product abundance [1]: 0.951

Sequence: ACAGACGAAGGAGCCGCAAAGAAGTTATTAAGGGATGAATAATCCCTCAATATAAATTATCTCTCACTTATTTAA
- cleaved RNA product abundance [1]: 0.975

Sequence: ACAGACGAAGGAGCCGCAAAGAAGTTATTAAGGGATGAATAATCCCTCAATATAAATTTCTCTCACTTATTTAAA
- cleaved RNA product abundance [2]: 0.72
- cleaved RNA product abundance [1]: 0.761
- cleaved RNA product abundance [3]: 0.391

Sequence: ACAGACGAAGGAGCCGCAAAGAAGTTATTAAGGGATGAATAATCCCTCAATATAAATTTGTCTCACTTATTTAAA
- cleaved RNA product abundance [2]: 0.98

Sequence: ACAGACGAAGGAGCCGCAAAGAAGTTATTAAGGGATGAATAATCCCTCAATATAACCATCTCTCACTTATTTAAA
- cleaved RNA product abundance [1]: 0.296

Sequence: ACAGACGAAGGAGCCGCAAAGAAGTTATTAAGGGATGAATAATCCCTCAATATAACTATCTCTCACTTATTTAAA
- cleaved RNA product abundance [2]: 0.201
- cleaved RNA product abundance [1]: 0.146
- cleaved RNA product abundance [3]: 0.267

Sequence: ACAGACGAAGGAGCCGCAAAGAAGTTATTAAGGGATGAATAATCCCTCAATATAAGTATCTCTCACTTATTTAAA
- cleaved RNA product abundance [2]: 0.397
- cleaved RNA product abundance [1]: 0.42
- cleaved RNA product abundance [3]: 0.462

Sequence: ACAGACGAAGGAGCCGCAAAGAAGTTATTAAGGGATGAATAATCCCTCAATATAATGATCTCTCACTTATTTAAA
- cleaved RNA product abundance [1]: 0.348

Sequence: ACAGACGAAGGAGCCGCAAAGAAGTTATTAAGGGATGAATAATCCCTCAATATAATTACCTCTCACTTATTTAAA
- cleaved RNA product abundance [1]: 0.435

Sequence: ACAGACGAAGGAGCCGCAAAGAAGTTATTAAGGGATGAATAATCCCTCAATATAATTATCTCTCACTTATTTAAA
- cleaved RNA product abundance [2]: 0.673
- cleaved RNA product abundance [1]: 0.491
- cleaved RNA product abundance [3]: 0.338

Sequence: ACAGACGAAGGAGCCGCAAAGAAGTTATTAAGGGATGAATAATCCCTCAATATACATATCTCTCACTTATTTAAA
- cleaved RNA product abundance [2]: 0.933
- cleaved RNA product abundance [1]: 0.838
- cleaved RNA product abundance [3]: 0.498

Sequence: ACAGACGAAGGAGCCGCAAAGAAGTTATTAAGGGATGAATAATCCCTCAATATACATCTCTCTCACTTATTTAAA
- cleaved RNA product abundance [1]: 0.206

Sequence: ACAGACGAAGGAGCCGCAAAGAAGTTATTAAGGGATGAATAATCCCTCAATATAGATATCTCTCACTTATTTAAA
- cleaved RNA product abundance [2]: 0.711
- cleaved RNA product abundance [1]: 0.683

Sequence: ACAGACGAAGGAGCCGCAAAGAAGTTATTAAGGGATGAATAATCCCTCAATATATAAATCTCTCACTTATTTAAA
- cleaved RNA product abundance [1]: 1.13

Sequence: ACAGACGAAGGAGCCGCAAAGAAGTTATTAAGGGATGAATAATCCCTCAATATATAGATCTCTCACTTATTTAAA
- cleaved RNA product abundance [1]: 0.77

Reference: the supplement of paper PMC11780869
